Biological target: AAV capsid expressed by the standard BEV1 infection and the v-cath deleted BEV2 infection in Sf9 cells

B1: V-CATH protease (Viral Cathepsin), encoded by the baculovirus v-cath gene of the BEV (protein)
chain: PLEFDWRRLNKVTSVKNQGMCGACWAFATLASLESQFAIKHNQLINLSEQQMIDCDFVDAGCNGGLLHTAFEAIIKMGGVQLESDYPYEADNNNCRMNSNKFLVQVKDCYRYITVYEEKLKDLLRLVGPIPMAIDAADIVNYKQGIIKYCFNSGLNHAVLLVGYGVENNIPYWTFKNTWGTDWGEDGFFRVQQNINACGMRNELASTAVIY
degradation products of the AAV capsid on Western immunoblot (BEV1 against v-cath deleted BEV2): Deletion of v-cath eliminated the degradation products.
